Test results from PMC10011572 (Nature Communications, 2023).
One block for each molecule: values may come before it.

Assays:
[1] = biological target: zanidatamab precursor (human); assay: SPR; zani precursor captured on immobilised goat anti-human Fc (CM5, Biacore T200), HER2 ECD 3.75-60 nM flowed; single-cycle, 1:1 Langmuir fit; apparent; capture/MW 2.11927331 RU/kDa
[2] = biological target: zanidatamab precursor (human); assay: SPR; zani precursor captured on immobilised goat anti-human Fc (CM5, Biacore T200), HER2 ECD 3.75-60 nM flowed; single-cycle, 1:1 Langmuir fit; apparent; capture/MW 0.571435477 RU/kDa
[3] = biological target: zanidatamab precursor (human); assay: SPR; zani precursor captured on immobilised goat anti-human Fc (CM5, Biacore T200), HER2 ECD 3.75-60 nM flowed; single-cycle, 1:1 Langmuir fit; apparent; capture/MW 0.164867939 RU/kDa
zanidatamab (human) [4] = assay: SPR; zani captured on immobilised goat anti-human Fc (CM5, Biacore T200), HER2 ECD 3.75-60 nM flowed; single-cycle, 1:1 Langmuir fit; apparent; capture/MW 1.217496547 RU/kDa
[5] = biological target: zanidatamab precursor (human); assay: SPR; zani precursor captured on immobilised goat anti-human Fc (CM5, Biacore T200), HER2 ECD 3.75-60 nM flowed; single-cycle, 1:1 Langmuir fit; apparent; capture/MW 0.703489894 RU/kDa
[6] = biological target: zanidatamab precursor (human); assay: SPR; zani precursor captured on immobilised goat anti-human Fc (CM5, Biacore T200), HER2 ECD 3.75-60 nM flowed; single-cycle, 1:1 Langmuir fit; apparent; capture/MW 1.970411967 RU/kDa
Zanidatamab (human) [7] = assay: AUC; sedimentation velocity, HER2 ECD and antibody equimolar (1x), 1 mg/mL total protein in DPBS, 20 °C, c(s) model
[8] = biological target: zanidatamab precursor (human); assay: SPR; zani precursor captured on immobilised goat anti-human Fc (CM5, Biacore T200), HER2 ECD 3.75-60 nM flowed; single-cycle, 1:1 Langmuir fit; apparent; capture/MW 0.312928952 RU/kDa
zanidatamab (human) [9] = assay: SPR; zani captured on immobilised goat anti-human Fc (CM5, Biacore T200), HER2 ECD 3.75-60 nM flowed; single-cycle, 1:1 Langmuir fit; apparent; capture/MW 0.273135738 RU/kDa
[10] = biological target: zanidatamab precursor (human); assay: SPR; zani precursor captured on immobilised goat anti-human Fc (CM5, Biacore T200), HER2 ECD 3.75-60 nM flowed; single-cycle, 1:1 Langmuir fit; apparent; capture/MW 0.356947091 RU/kDa
[11] = biological target: zanidatamab precursor (human); assay: SPR; zani precursor captured on immobilised goat anti-human Fc (CM5, Biacore T200), HER2 ECD 3.75-60 nM flowed; single-cycle, 1:1 Langmuir fit; apparent; capture/MW 0.790725842 RU/kDa
[12] = biological target: zanidatamab precursor (human); assay: SPR; zani precursor captured on immobilised goat anti-human Fc (CM5, Biacore T200), HER2 ECD 3.75-60 nM flowed; single-cycle, 1:1 Langmuir fit; apparent; capture/MW 2.00002417 RU/kDa
zanidatamab (human) [13] = assay: SPR; zani captured on immobilised goat anti-human Fc (CM5, Biacore T200), HER2 ECD 3.75-60 nM flowed; single-cycle, 1:1 Langmuir fit; apparent; capture/MW 0.856252506 RU/kDa
[14] = biological target: zanidatamab precursor (human); assay: SPR; zani precursor captured on immobilised goat anti-human Fc (CM5, Biacore T200), HER2 ECD 3.75-60 nM flowed; single-cycle, 1:1 Langmuir fit; apparent; capture/MW 0.555428881 RU/kDa
zanidatamab (human) [15] = assay: SPR; zani captured on immobilised goat anti-human Fc (CM5, Biacore T200), HER2 ECD 3.75-60 nM flowed; single-cycle, 1:1 Langmuir fit; apparent; capture/MW 2.080156929 RU/kDa
zanidatamab (human) [16] = assay: SPR; zani captured on immobilised goat anti-human Fc (CM5, Biacore T200), HER2 ECD 3.75-60 nM flowed; single-cycle, 1:1 Langmuir fit; apparent; capture/MW 0.484595665 RU/kDa
[17] = biological target: zanidatamab precursor (human); assay: SPR; zani precursor captured on immobilised goat anti-human Fc (CM5, Biacore T200), HER2 ECD 3.75-60 nM flowed; single-cycle, 1:1 Langmuir fit; apparent; capture/MW 4.911623982 RU/kDa
zanidatamab (human) [18] = assay: SPR; zani captured on immobilised goat anti-human Fc (CM5, Biacore T200), HER2 ECD 3.75-60 nM flowed; single-cycle, 1:1 Langmuir fit; apparent; capture/MW 1.306405834 RU/kDa
zanidatamab (human) [19] = assay: SPR; zani captured on immobilised goat anti-human Fc (CM5, Biacore T200), HER2 ECD 3.75-60 nM flowed; single-cycle, 1:1 Langmuir fit; apparent; capture/MW 0.793775709 RU/kDa
zanidatamab (human) [20] = assay: SPR; zani captured on immobilised goat anti-human Fc (CM5, Biacore T200), HER2 ECD 3.75-60 nM flowed; single-cycle, 1:1 Langmuir fit; apparent; capture/MW 2.37652122 RU/kDa
[21] = biological target: zanidatamab precursor (human); assay: SPR; zani precursor captured on immobilised goat anti-human Fc (CM5, Biacore T200), HER2 ECD 3.75-60 nM flowed; single-cycle, 1:1 Langmuir fit; apparent; capture/MW 2.899594865 RU/kDa
[22] = biological target: zanidatamab precursor (human); assay: SPR; zani precursor captured on immobilised goat anti-human Fc (CM5, Biacore T200), HER2 ECD 3.75-60 nM flowed; single-cycle, 1:1 Langmuir fit; apparent; capture/MW 1.267722403 RU/kDa
[23] = biological target: zanidatamab precursor (human); assay: SPR; zani precursor captured on immobilised goat anti-human Fc (CM5, Biacore T200), HER2 ECD 3.75-60 nM flowed; single-cycle, 1:1 Langmuir fit; apparent; capture/MW 3.817573146 RU/kDa
[24] = biological target: zanidatamab precursor (human); assay: SPR; zani precursor captured on immobilised goat anti-human Fc (CM5, Biacore T200), HER2 ECD 3.75-60 nM flowed; single-cycle, 1:1 Langmuir fit; apparent; capture/MW 1.008415548 RU/kDa
[25] = biological target: zanidatamab precursor (human); assay: SPR; zani precursor captured on immobilised goat anti-human Fc (CM5, Biacore T200), HER2 ECD 3.75-60 nM flowed; single-cycle, 1:1 Langmuir fit; apparent; capture/MW 0.423374464 RU/kDa
[26] = biological target: zanidatamab precursor (human); assay: SPR; zani precursor captured on immobilised goat anti-human Fc (CM5, Biacore T200), HER2 ECD 3.75-60 nM flowed; single-cycle, 1:1 Langmuir fit; apparent; capture/MW 0.365750719 RU/kDa
[27] = biological target: zanidatamab precursor (human); assay: SPR; zani precursor captured on immobilised goat anti-human Fc (CM5, Biacore T200), HER2 ECD 3.75-60 nM flowed; single-cycle, 1:1 Langmuir fit; apparent; capture/MW 2.483423369 RU/kDa
[28] = biological target: zanidatamab precursor (human); assay: SPR; zani precursor captured on immobilised goat anti-human Fc (CM5, Biacore T200), HER2 ECD 3.75-60 nM flowed; single-cycle, 1:1 Langmuir fit; apparent; capture/MW 4.555477221 RU/kDa
[29] = biological target: zanidatamab precursor (human); assay: SPR; zani precursor captured on immobilised goat anti-human Fc (CM5, Biacore T200), HER2 ECD 3.75-60 nM flowed; single-cycle, 1:1 Langmuir fit; apparent; capture/MW 3.104479294 RU/kDa
zanidatamab (human) [30] = assay: SPR; zani captured on immobilised goat anti-human Fc (CM5, Biacore T200), HER2 ECD 3.75-60 nM flowed; single-cycle, 1:1 Langmuir fit; apparent; capture/MW 0.62396698 RU/kDa
[31] = biological target: zanidatamab precursor (human); assay: SPR; zani precursor captured on immobilised goat anti-human Fc (CM5, Biacore T200), HER2 ECD 3.75-60 nM flowed; single-cycle, 1:1 Langmuir fit; apparent; capture/MW 0.083234299 RU/kDa
[32] = biological target: zanidatamab precursor (human); assay: SPR; zani precursor captured on immobilised goat anti-human Fc (CM5, Biacore T200), HER2 ECD 3.75-60 nM flowed; single-cycle, 1:1 Langmuir fit; apparent; capture/MW 1.154875901 RU/kDa
[33] = biological target: zanidatamab precursor (human); assay: SPR; zani precursor captured on immobilised goat anti-human Fc (CM5, Biacore T200), HER2 ECD 3.75-60 nM flowed; single-cycle, 1:1 Langmuir fit; apparent; capture/MW 4.096087916 RU/kDa
Zanidatamab (human) [34] = assay: SPR; Biacore T200; goat anti-human Fc polyclonal Ab amine-coupled to about 2000 RU on a CM5 chip captures the antibody; increasing concentrations of HER2 ECD injected; single-cycle kinetics, 1:1 binding model; KD of zanidatamab called apparent
[35] = biological target: T1, Recombinant human HER2 ECD (Homo sapiens, UniProt P04626); assay: as above; settings: both partners purified
T1 construct: human epidermal growth factor receptor 2 (HER2), extracellular domain, recombinant; printed mass 72 kDa; The supplier is named for the SPR only; source: bought: Acro Inc

Kd [1]: 475 pM
Kd [2]: 687 pM
Kd [3]: 879 pM
Kd (zanidatamab (human) [4]): 93.2 pM
Kd [5]: 992 pM
Kd [6]: 460 pM
percent of the total peak area in multimeric complexes (Zanidatamab (human) [7]): 95%
Kd [8]: 663 pM
Kd (zanidatamab (human) [9]): 149 pM
Kd [10]: 927 pM
Kd [11]: 992 pM
Kd [12]: 152 pM
Kd (zanidatamab (human) [13]): 174 pM
Kd [14]: 679 pM
Kd (zanidatamab (human) [15]): 98.9 pM
Kd (zanidatamab (human) [16]): 175 pM
Kd [17]: 35.8 pM
Kd (zanidatamab (human) [18]): 91.3 pM
Kd (zanidatamab (human) [19]): 99.7 pM
Kd (zanidatamab (human) [20]): 80.1 pM
Kd [21]: 318 pM
Kd [22]: 654 pM
Kd [23]: 136 pM
Kd [24]: 490 pM
Kd [25]: 2020 pM
Kd [26]: 1120 pM
Kd [27]: 93.1 pM
Kd [28]: 46.8 pM
Kd [29]: 311 pM
Kd (zanidatamab (human) [30]): 169 pM
Kd [31]: 890 pM
Kd [32]: 743 pM
Kd [33]: 119 pM
Kd (Zanidatamab (human) [34]): 740 pM
Molecule: Recombinant human HER2 ECD (from UniProt P04626 23-652) (domain or fragment)

Kd [35]: 1700 pM
B1: Monovalent one-armed Ab (OAA) with the affinity-improved anti-HER2-ECD2 Fab (antibody, V domains shown)
VH: EVQLVESGGGLVQPGGSLRLSCAASGFTFADYTMDWVRQAPGKGLEWVGDVNPNSGGSIYNQRFKGRFTFSVDRSKNTLYLQMNSLRAEDTAVYYCARNLGPSFYFDYWGQGTLVTVSS
VL: DIQMTQSPSSLSASVGDRVTITCKASQDVSIGVAWYQQKPGKAPKLLIYSASYRYTGVPSRFSGSGSGTDFTLTISSLQPEDFATYYCQQYYIYPATFGQGTKVEIK
notes: as the light chain of m3; also called one variant; copies: + +
